As usually defined, the stoichiometry N is a count of units in the complex or per binding partner. The Kd is the equilibrium constant for the complex coming apart.

Values joined by “and” are separate entries in the source; they are usually repeats but may differ in a detail not shown here. Equal entries are not always repeated.

One data set deals with ΔStammer-ORF1p (human). Nature of the data set: mass photometry; purified ORF1p alone, landing on a glass coverslip; 300 nM ORF1p in 20 mM Hepes pH 7.5, 50 mM KCl, 1 mM MgCl2, 1 mM DTT; also a protein concentration series, a KCl series and 150 mM KCl; monomers to trimers, trimers to hexamers and higher-order oligomers.
Data set [1] addresses T1, ORF1p WT (Homo sapiens, UniProt Q9UN81 1-338). Put plainly: fluorescence anisotropy; 50 mM KCl; 20 mM Hepes pH 7.5, 50 mM KCl (150 or 300 mM in Fig. S1D rows), 1 mM MgCl2, 1 mM DTT; 1 nM 6-FAM oligo; temperature not stated. The conditions noted are these: protein: recombinant, tags: tag removed, N-terminal G left, chain copies: 3. (Polarisation of emitted light reports the rotation of a fluorescent probe.)

In another data set the target is ΔStammer-ORF1p (Homo sapiens, UniProt Q9UN81 1-338, del91-93). The data set is described as above. The conditions noted are these: protein: recombinant, tags: tag removed by TEV, N-terminal G left, chain copies: 3.
A further data set concerns the target T2, His-TEV-ORF1p (Homo sapiens, UniProt Q9UN81 1-338).
T2 chain: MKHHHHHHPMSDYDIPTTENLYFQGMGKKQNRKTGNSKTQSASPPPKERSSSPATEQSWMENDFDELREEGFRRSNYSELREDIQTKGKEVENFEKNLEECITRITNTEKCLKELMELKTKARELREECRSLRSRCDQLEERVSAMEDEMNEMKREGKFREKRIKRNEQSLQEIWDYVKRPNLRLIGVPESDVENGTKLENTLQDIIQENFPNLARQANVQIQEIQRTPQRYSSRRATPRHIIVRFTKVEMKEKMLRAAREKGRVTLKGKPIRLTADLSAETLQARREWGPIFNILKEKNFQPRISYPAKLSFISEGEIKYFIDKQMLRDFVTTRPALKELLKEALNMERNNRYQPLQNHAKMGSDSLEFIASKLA
The description is as above. The conditions noted are these: protein: recombinant, tags: uncleaved N-terminal His-TEV, C-terminal ybbR, chain copies: 3.

In another data set the target is K3A/K4A-ORF1p (Homo sapiens, UniProt Q9UN81 1-338, K3A;K4A). The data set is described as above. The conditions noted are these: protein: recombinant, tags: tag removed, N-terminal G left, chain copies: 3.
The target of data set [2] is T3, ORF1p WT (Homo sapiens, UniProt Q9UN81). Nature of the data set: mass photometry; two-trimer peak more prominent; Anisotropy: 20 mM Hepes pH 7.5, 50 mM KCl, 1 mM MgCl2, 1 mM DTT, 1 nM 6-FAM oligo, temperature not stated; DNA curtains: 50, 150 or 300 mM KCl, RNP premix 1 min at room temperature. The conditions noted are these: protein: recombinant; tags: tag removed, N-terminal G left; chain copies: 3.

Data set [3] has as its target T3, ORF1p WT. Put plainly: mass photometry; second peak, two trimers per RNA; Anisotropy: 20 mM Hepes pH 7.5, 50 mM KCl, 1 mM MgCl2, 1 mM DTT, 1 nM 6-FAM oligo, temperature not stated; DNA curtains: 50, 150 or 300 mM KCl, RNP premix 1 min at room temperature. The note with it: protein: recombinant; tags: tag removed, N-terminal G left; chain copies: 3.
The target of data set [4] is T3, ORF1p WT. Put plainly: mass photometry; one trimer per RNA; Anisotropy: 20 mM Hepes pH 7.5, 50 mM KCl, 1 mM MgCl2, 1 mM DTT, 1 nM 6-FAM oligo, temperature not stated; DNA curtains: 50, 150 or 300 mM KCl, RNP premix 1 min at room temperature. The conditions noted are these: protein: recombinant; tags: tag removed, N-terminal G left; chain copies: 3.
Data set [5] concerns the target T1, ORF1p WT. Put plainly: fluorescence anisotropy; 150 mM KCl; 20 mM Hepes pH 7.5, 50 mM KCl (150 or 300 mM in Fig. S1D rows), 1 mM MgCl2, 1 mM DTT; 1 nM 6-FAM oligo; temperature not stated. The conditions noted are these: protein: recombinant; tags: tag removed, N-terminal G left; chain copies: 3; label: 5' 6-FAM (anisotropy); unstructured.
The target of data set [6] is T1, ORF1p WT. Nature of the data set: fluorescence anisotropy; 300 mM KCl; 20 mM Hepes pH 7.5, 50 mM KCl (150 or 300 mM in Fig. S1D rows), 1 mM MgCl2, 1 mM DTT; 1 nM 6-FAM oligo; temperature not stated. The note with it: protein: recombinant; tags: tag removed, N-terminal G left; chain copies: 3; label: 5' 6-FAM (anisotropy); unstructured.
Data set [7] deals with the molecule itself. Nature of the data set: mass photometry; purified ORF1p alone, landing on a glass coverslip; 300 nM ORF1p in 20 mM Hepes pH 7.5, 50 mM KCl, 1 mM MgCl2, 1 mM DTT; also a protein concentration series, a KCl series and 150 mM KCl; monomers to trimers, trimers to hexamers and higher-order oligomers.
The mark [8] stands for this setting: label: 5' 6-FAM on strand 1 (anisotropy), blunt.
[9] abbreviates: label: 5' 6-FAM (anisotropy), unstructured.

ΔStammer-ORF1p (natural protein) displayed a stoichiometry N with ΔStammer-ORF1p (human) of 6.

Turning to ACCATCATCAAAGACCAAAAGTAGATAAAA (ssDNA) [30 nt ssDNA], in the data set with ORF1p WT [1] (label: 5' 6-FAM), the dissociation constant Kd came out at 8.27 nM.

In the case of AAAAAAAAAAAAAAAAAAAAAAAAAAAAAA (ssRNA) [30 nt poly(A)], the Kd in the data set with ORF1p WT [1] (label: 5' 6-FAM) amounted to 6.01 nM.

B1: 30 bp dsDNA (dsDNA)
DNA 1: ACCATCATCAAAGACCAAAAGTAGATAAAA
DNA 2: TTTTATCTACTTTTGGTCTTTGATGATGGT
On to B1, for which the dissociation constant Kd turned out to be 26.6 nM with ΔStammer-ORF1p (setting [8]), 18.9 nM with ORF1p WT [1] (setting [8]), 28.6 nM with His-TEV-ORF1p (setting [8]) and 21.8 nM with K3A/K4A-ORF1p (setting [8]).

B2: 120 nt RNA (ssRNA)
RNA: GGGCGAAUUGGGUACCGGGCCCCCCCUCGAGGCCGGUAGAGGUGUGGUCAAUAAGAGCGACCUCAUACUAUACCUGAGAAAGCAACCUGACCUACAGGAAAGAGUUACUCAAGAAUAAGA
As to B2, in the data set with ORF1p WT [2], the binding result is recorded as “binds”.

B3: 90 nt RNA (ssRNA)
RNA: GGGCGAAUUGGGUACCGGGCCCCCCCUCGAGGCCGGUAGAGGUGUGGUCAAUAAGAGCGACCUCAUACUAUACCUGAGAAAGCAACCUGA
As to B3, the binding result in the data set with ORF1p WT [3] was “binds”.

B4: 60 nt RNA (ssRNA)
RNA: GGGCGAAUUGGGUACCGGGCCCCCCCUCGAGGCCGGUAGAGGUGUGGUCAAUAAGAGCGA
Take B4: the binding result with ORF1p WT [4] is “binds”.

B5: 30 bp RNA/DNA hybrid (DNA:RNA)
RNA: ACCAUCAUCAAAGACCAAAAGUAGAUAAAA
DNA: TTTTATCTACTTTTGGTCTTTGATGATGGT
As for B5, the Kd in the data set with ORF1p WT [1] (label: 5' 6-FAM on RNA, blunt) worked out at 4.68 nM.

ACCAUCAUCAAAGACCAAAAGUAGAUAAAA (ssRNA) [30 nt RNA]: the dissociation constant (Kd) with ORF1p WT [5] worked out at 11.3 nM; with ORF1p WT [6] it was 11.9 nM; in the data set with ΔStammer-ORF1p (setting [9]), 8.06 nM; with ORF1p WT [1] (setting [9]), 3.89 nM; in the data set with His-TEV-ORF1p (setting [9]) it was 17.7 nM; in the data set with K3A/K4A-ORF1p (setting [9]), 11.1 nM.

B6: WT-ORF1p (LINE-1 ORF1 protein, Homo sapiens) (natural protein, human)
chain: GMGKKQNRKTGNSKTQSASPPPKERSSSPATEQSWMENDFDELREEGFRRSNYSELREDIQTKGKEVENFEKNLEECITRITNTEKCLKELMELKTKARELREECRSLRSRCDQLEERVSAMEDEMNEMKREGKFREKRIKRNEQSLQEIWDYVKRPNLRLIGVPESDVENGTKLENTLQDIIQENFPNLARQANVQIQEIQRTPQRYSSRRATPRHIIVRFTKVEMKEKMLRAAREKGRVTLKGKPIRLTADLSAETLQARREWGPIFNILKEKNFQPRISYPAKLSFISEGEIKYFIDKQMLRDFVTTRPALKELLKEALNMERNNRYQPLQNHAKM
notes: first printed residue of the construct, before the first methionine of ORF1p; left after TEV protease digestion; LINE-1 ORF1p, human, 338 residues as printed; also called pLH2087; source: E. coli BL21(DE3), purified as described previously (19); not shown: His6, N-terminal, cleaved
Take B6: the “stoichiometry N” value in data set [7] was 6 and 3.

B7: K3A/K4A-ORF1p (natural protein, human)
chain: GMGAAQNRKTGNSKTQSASPPPKERSSSPATEQSWMENDFDELREEGFRRSNYSELREDIQTKGKEVENFEKNLEECITRITNTEKCLKELMELKTKARELREECRSLRSRCDQLEERVSAMEDEMNEMKREGKFREKRIKRNEQSLQEIWDYVKRPNLRLIGVPESDVENGTKLENTLQDIIQENFPNLARQANVQIQEIQRTPQRYSSRRATPRHIIVRFTKVEMKEKMLRAAREKGRVTLKGKPIRLTADLSAETLQARREWGPIFNILKEKNFQPRISYPAKLSFISEGEIKYFIDKQMLRDFVTTRPALKELLKEALNMERNNRYQPLQNHAKM
notes: first printed residue of the construct, before the first methionine of ORF1p; left after TEV protease digestion; LINE-1 ORF1p, human, with the N-terminal basic patch mutated; also called pLH2075; source: E. coli BL21(DE3), purified as described previously (19); not shown: His6, N-terminal, cleaved
For the molecule B7, the binding result in data set [7] was “binds”.

These data come from publication PMC12047440, “LINE-1 ribonucleoprotein condensates bind DNA to enable nuclear entry during mitosis” (Science Advances, 2024).
